Source: patent publication US20200317768A1 (published 2020)
Positions count from the first letter of the chain named. One block for each binder: values may come before it.

Tests used:
[1] = target: T1, human FcγRIIb constitutively expressed on MDCK cells (human, UniProt P31994 43-310); experiment: cell-based or functional assay
T1 sequence (looked up): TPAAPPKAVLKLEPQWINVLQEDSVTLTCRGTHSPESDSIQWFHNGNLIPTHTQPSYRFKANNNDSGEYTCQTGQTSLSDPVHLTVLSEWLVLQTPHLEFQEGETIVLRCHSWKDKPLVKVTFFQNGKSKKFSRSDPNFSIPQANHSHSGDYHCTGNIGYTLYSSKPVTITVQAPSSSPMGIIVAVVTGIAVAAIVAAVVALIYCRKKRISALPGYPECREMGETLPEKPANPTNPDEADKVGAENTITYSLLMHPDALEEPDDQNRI

[2] = target: T2, cynomolgus monkey FcγRIIa2 extracellular domain, C-terminal His-tag (cynomolgus monkey); experiment: SPR; FcgR bound per captured antibody, normalized to SG1
T2 construct: also called cyno FcγRIIa2; FcgRIIa2
T2 chain: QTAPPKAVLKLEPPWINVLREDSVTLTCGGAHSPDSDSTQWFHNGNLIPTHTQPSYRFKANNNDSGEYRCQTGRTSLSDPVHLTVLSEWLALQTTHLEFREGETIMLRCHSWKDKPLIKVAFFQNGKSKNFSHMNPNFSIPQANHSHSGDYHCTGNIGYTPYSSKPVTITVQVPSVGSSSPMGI

[3] = target: T3, cynomolgus monkey FcγRIIa1 extracellular domain, C-terminal His-tag (cynomolgus monkey); experiment: as above
T3 construct: also called cyno FcγRIIa1; FcgRIIa1
T3 chain: T2 chain with T95P, A121T, K127I, S128A, N130K, N135D, Q142R

[4] = target: T4, cynomolgus monkey FcγRIIb extracellular domain, C-terminal His-tag (cynomolgus monkey); experiment: as above
T4 construct: also called cyno FcγRIIb; cynoFcγRIIb
T4 chain: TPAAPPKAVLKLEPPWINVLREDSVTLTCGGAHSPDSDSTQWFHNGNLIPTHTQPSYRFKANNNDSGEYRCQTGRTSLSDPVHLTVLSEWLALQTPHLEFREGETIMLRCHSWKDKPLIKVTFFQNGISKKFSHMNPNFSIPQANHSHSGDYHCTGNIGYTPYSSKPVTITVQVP

[5] = target: T5, cynomolgus monkey FcγRIIa2 extracellular domain with C-terminal His-tag (cynomolgus monkey); experiment: SPR (BIACORE); KD of SG1 / KD of variant;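 note: relative to parent M103205H795-SG1 carrying the SG1 human heavy chain constant region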
T5 construct: also called cyno FcgRIIa2; cynoFcγRIIa2
T5 chain: T2 chain

[6] = target: T6, human FcγRIIaR extracellular domain with C-terminal His-tag (human, UniProt P12318 34-217); experiment: SPR (BIACORE); KD of SG1 / KD of variant;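 note: relative to parent M103205H795-SG1 carrying the SG1 human heavy chain constant region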
T6 construct: also called human FcgRIIaR; FcγRIIa (type R)
T6 chain: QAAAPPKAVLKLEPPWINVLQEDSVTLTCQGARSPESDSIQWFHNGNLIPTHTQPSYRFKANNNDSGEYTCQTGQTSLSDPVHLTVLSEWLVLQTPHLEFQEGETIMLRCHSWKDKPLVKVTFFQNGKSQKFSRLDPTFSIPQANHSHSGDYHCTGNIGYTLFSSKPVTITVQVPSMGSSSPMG

[7] = target: T7, cynomolgus monkey FcγRIIIaS extracellular domain with C-terminal His-tag (cynomolgus monkey, UniProt Q8SPW2 21-206 at identity 1.00)); experiment: SPR (BIACORE); KD of SG1 / KD of variant;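 note: relative to parent M103205H795-SG1 carrying the SG1 human heavy chain constant region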
T7 construct: also called cyno FcgRIIIaS; cynoFcγRIIIaS
T7 chain: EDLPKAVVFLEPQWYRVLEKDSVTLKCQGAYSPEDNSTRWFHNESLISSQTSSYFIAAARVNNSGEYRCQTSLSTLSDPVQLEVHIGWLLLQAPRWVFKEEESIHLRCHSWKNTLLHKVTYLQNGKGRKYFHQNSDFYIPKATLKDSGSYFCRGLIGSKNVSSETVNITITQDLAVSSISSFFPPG

[8] = target: T8, human FcγRIIIaV extracellular domain with C-terminal His-tag (human, UniProt P08637 17-208); experiment: SPR (BIACORE); KD of SG1 / KD of variant;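 note: relative to parent M103205H795-SG1 carrying the SG1 human heavy chain constant region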
T8 construct: also called human FcgRIIIaV

[9] = target: T9, cynomolgus monkey FcγRIIa3 extracellular domain with C-terminal His-tag (cynomolgus monkey); experiment: SPR (BIACORE); KD of SG1 / KD of variant
T9 construct: also called cyno FcgRIIa3; cynoFcγRIIa3
T9 chain: T2 chain with K127I, N130K, H133P, Q142R

T8 sequence (P08637 17-208 F176V): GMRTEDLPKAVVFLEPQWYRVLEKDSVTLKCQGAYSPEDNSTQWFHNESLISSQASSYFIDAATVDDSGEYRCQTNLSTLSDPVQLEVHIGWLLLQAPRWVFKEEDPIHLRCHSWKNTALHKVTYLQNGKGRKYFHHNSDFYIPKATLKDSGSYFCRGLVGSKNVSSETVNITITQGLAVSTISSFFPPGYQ

- celluar uptake [1]: 1 relative to SG1 (=1.00)
B1: MS1032LO06-SG1 (M103205H795-SG1/M103202L889-SK1) (antibody, human IgG1, kappa)
heavy: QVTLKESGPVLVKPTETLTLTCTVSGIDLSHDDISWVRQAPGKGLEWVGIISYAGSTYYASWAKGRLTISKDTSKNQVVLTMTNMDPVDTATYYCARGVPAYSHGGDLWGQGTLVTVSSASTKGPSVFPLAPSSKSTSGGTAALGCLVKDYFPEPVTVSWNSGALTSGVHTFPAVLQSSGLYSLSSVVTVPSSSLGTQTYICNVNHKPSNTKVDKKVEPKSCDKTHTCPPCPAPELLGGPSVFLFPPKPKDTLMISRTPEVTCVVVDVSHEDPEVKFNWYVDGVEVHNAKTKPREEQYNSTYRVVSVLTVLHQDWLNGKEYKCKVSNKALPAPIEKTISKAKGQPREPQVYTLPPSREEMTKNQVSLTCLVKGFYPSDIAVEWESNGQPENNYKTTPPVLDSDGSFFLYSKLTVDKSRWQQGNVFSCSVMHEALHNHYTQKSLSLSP
light: DIVMTQSPATLSLSPGERATLSCTSSQSVYHANWLSWFQQKPGQPPKLLIYWASTLAYGVPSRFSGSGSGTDFTLTISSLQPEDAATYYCAGGYGGGRYAFGQGTKVEIKRTVAAPSVFIFPPSDEQLKSGTASVVCLLNNFYPREAKVQWKVDNALQSGNSQESVTEQDSKDSTYSLSSTLTLSKADYEKHKVYACEVTHQGLSSPVTKSFNRGEC
notes: Anti-latent myostatin antibody

- amount of FcgR binding (SG1 = 100) [2]: 100 SG1 = 100
- amount of FcgR binding (SG1 = 100) [3]: 100 SG1 = 100
- amount of FcgR binding (SG1 = 100) [4]: 100 SG1 = 100
B2: MS_M103205H795-SG1/M103202L889-SK1 (antibody, human IgG1, kappa)
heavy: not shown
light: B1 light
notes: also called MS1032LO06-SG1

- KD fold (SG1 = 1) [5]: 1 fold
- KD fold (SG1 = 1) [6]: 1 fold
- KD fold (SG1 = 1) [7]: 1 fold
- KD fold (SG1 = 1) [8]: 1 fold
- KD fold (SG1 = 1) [9]: 1 fold
B3: MS_M103205H795-SG1/M103202L889-SK1 (antibody, human IgG1, kappa)
heavy: not shown
light: B1 light
notes: Parent antibody of the Fc variants; also called MS1032LO06-SG1
